What all share (settings): both partners purified
In assay [1] the target is T1, Mature Pertactin (Prn) (Bordetella pertussis, strain  …).
T1 construct: pertactin (Prn) of Bordetella pertussis, mature passenger domain; the legend on D1:p9 names 1DAB instead; also called wild-type Prn; wild type Prn
T1 chain: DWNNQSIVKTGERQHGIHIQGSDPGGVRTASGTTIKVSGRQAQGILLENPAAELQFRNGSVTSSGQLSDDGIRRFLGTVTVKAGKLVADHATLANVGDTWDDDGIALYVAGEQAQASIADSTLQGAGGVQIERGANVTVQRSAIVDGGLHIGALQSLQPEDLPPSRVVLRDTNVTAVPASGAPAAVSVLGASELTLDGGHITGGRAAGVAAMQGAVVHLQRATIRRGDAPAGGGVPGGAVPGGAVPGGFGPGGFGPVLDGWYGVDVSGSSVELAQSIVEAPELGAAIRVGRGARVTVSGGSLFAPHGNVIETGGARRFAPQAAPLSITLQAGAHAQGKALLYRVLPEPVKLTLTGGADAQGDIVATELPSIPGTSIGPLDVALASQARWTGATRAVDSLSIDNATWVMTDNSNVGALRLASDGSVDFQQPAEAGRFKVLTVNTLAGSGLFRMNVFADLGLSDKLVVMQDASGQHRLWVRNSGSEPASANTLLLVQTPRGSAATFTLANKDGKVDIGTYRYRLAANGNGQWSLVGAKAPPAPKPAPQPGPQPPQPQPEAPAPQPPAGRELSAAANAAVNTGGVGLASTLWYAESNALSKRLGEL
In words: BLI; mAb (10 nM) loaded on anti-mouse IgG Fc (AMC) biosensors, dipped into Prn at 50, 25, 12.5, 6.25, 3.125 and 1.56 nM; kinetic buffer (HEPES buffer with 0.01% BSA and 0.002% Tween-20); Octet Red96; 1:1 binding model, global fit, single replicate. (In general: Biolayer interferometry detects binding as a change in optical thickness at a sensor tip.)

The target of assay [2] is T2, mature pertactin (Prn), wild type (Bordetella pertussis, strain  …).
T2 construct: Pertactin (Prn) of Bordetella pertussis, mature N-terminal passenger domain (63 kDa), cut from the precursor; Kept in 0.06% C10E5 detergent for native MS; also called Prn antigen; wild-type Prn
T2 chain: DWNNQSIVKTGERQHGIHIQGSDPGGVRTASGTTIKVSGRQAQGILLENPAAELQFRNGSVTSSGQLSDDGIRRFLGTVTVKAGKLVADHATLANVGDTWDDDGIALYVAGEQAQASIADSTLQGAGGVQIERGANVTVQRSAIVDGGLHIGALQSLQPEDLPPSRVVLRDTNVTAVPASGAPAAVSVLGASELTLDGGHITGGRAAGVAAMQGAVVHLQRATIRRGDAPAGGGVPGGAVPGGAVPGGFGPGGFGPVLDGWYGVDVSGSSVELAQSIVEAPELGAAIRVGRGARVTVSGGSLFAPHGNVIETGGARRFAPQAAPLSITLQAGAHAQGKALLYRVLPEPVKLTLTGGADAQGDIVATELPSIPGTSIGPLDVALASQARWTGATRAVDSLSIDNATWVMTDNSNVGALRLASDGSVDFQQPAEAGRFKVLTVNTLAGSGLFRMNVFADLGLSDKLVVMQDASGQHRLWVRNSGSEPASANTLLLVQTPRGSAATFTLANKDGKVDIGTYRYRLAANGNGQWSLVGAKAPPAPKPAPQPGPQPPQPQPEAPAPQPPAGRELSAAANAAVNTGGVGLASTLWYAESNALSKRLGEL
The experiment in a line: native MS; titration: fixed 2 µM mAb, Prn 0.5 µM to 8 µM, 250 mM ammonium acetate with 0.06% C10E5.

Assay [3] addresses T3, ΔC-term Prn variant (Bordetella pertussis, strain  …, point mutant).
T3 construct: Pertactin (Prn) of Bordetella pertussis, mature passenger domain from which 64 residues at the C-terminus (with the R2 repeat region; unstructured in the X-ray structure) were truncated; also called ΔC-terminal
T3 chain: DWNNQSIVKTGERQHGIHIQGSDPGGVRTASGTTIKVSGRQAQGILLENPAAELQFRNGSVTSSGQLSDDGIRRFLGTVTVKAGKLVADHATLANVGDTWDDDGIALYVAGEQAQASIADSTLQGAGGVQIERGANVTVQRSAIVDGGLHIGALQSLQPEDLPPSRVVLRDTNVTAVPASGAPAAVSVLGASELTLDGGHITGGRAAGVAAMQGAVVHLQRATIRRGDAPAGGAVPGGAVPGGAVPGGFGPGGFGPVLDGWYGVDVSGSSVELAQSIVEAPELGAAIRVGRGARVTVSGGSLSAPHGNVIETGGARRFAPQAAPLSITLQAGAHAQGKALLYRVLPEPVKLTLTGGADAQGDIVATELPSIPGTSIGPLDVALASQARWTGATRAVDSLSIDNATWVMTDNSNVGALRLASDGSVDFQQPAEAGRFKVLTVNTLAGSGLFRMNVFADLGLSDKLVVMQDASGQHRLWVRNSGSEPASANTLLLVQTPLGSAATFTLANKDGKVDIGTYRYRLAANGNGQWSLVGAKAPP
The experiment in a line: native MS; 2 µM mAb and 2 µM Prn or Prn variant (equimolar), 250 mM ammonium acetate with 0.06% C10E5, 1 hour at room temperature, nano-ESI on Q Exactive UHMR.

B1: 2E9 monoclonal antibody (antibody, V domains shown)
VH: QVQLQQSGPELVKPGASVKMSCKASGYTFTSNYIHWMKQRPGQGLEWIGWIYPGDGSSKYNEKFKGKTTLTADRSSSTAYMLLSSLTSEDSAIYFCANYFYAMDQWGQGTSVTVSR
VL: IVLTQSHKFMSTSVGDRVSITCKASQDVSTAVAWYQQKPGQSPKLLIYWASTRHTGVPDRFTGSGSGTDYTLTISSVQAEDLALYYCQQHYSTPWTFGGGTKLEIK
notes: 2E9 HC, whole heavy chain as printed: variable region with mouse IgG2a constant domains; 2E9 LC, whole light chain as printed; full-length mouse IgG2a; measured mass 147,603 Da; also called 2E9 mAb; 2E9 Ab; source: ExpiCHO-S, transfected, purified (HiTrap Protein A); copies: 2 + 2
Turning to B1, the Kd (commonly the equilibrium constant for the complex coming apart) in assay [1] was below 1 nM.

B2: 1F2 monoclonal antibody (antibody, V domains shown)
VH: EVQLVESGGGLVKPGESLKLSCAASGFTFNSYTMSWVRQTPEKRLEWVATISSGGSYTYYPDSVKGRFTISRDNAKNTLYLQMSSLKSEDTAMYYCIRVGGLFDYWGQGTTLTVSR
VL: IQMIQSHKFMSTSVGDRVSITCKASQDVSTAVAWYQQKPGQSPKLLIYWASTRHTGVPDRFTGSGSGTDFTLTISGVQAEDLALYYCQQHYTTPWTFGGGTKLEIK
notes: 1F2 HC, whole heavy chain as printed: variable region with mouse IgG2a constant domains; 1F2 LC, whole light chain as printed; full-length mouse IgG2a; measured mass 148,317 Da; also called 1F2 mAb; 1F2 Ab; source: ExpiCHO-S, transfected, purified (HiTrap Protein A); copies: 2 + 2
The molecule B2 returned a Kd in assay [1] below 1 nM.

B3: 1F2 monoclonal antibody (antibody, V domains shown)
VH: EVQLVESGGGLVKPGESLKLSCAASGFTFNSYTMSWVRQTPEKRLEWVATISSGGSYTYYPDSVKGRFTISRDNAKNTLYLQMSSLKSEDTAMYYCIRVGGLFDYWGQGTTLTVSR
VL: IQMIQSHKFMSTSVGDRVSITCKASQDVSTAVAWYQQKPGQSPKLLIYWASTRHTGVPDRFTGSGSGTDFTLTISGVQAEDLALYYCQQHYTTPWTFGGGTKLEIK
notes: variable region of 1F2; mouse IgG2a heavy chain constant domains; mouse light chain constant domain; Full-length mouse IgG2a; also called 1F2 antibody; source: ExpiCHO-S, transfected, purified (Protein A); copies: 2 + 2
Take B3: in assay [2], the stoichiometry N (usually the number of molecules, sites or subunits per partner or assembly) came out at 2 Prn per mAb.

B4: 2E9 monoclonal antibody (antibody, V domains shown)
VH: QVQLQQSGPELVKPGASVKMSCKASGYTFTSNYIHWMKQRPGQGLEWIGWIYPGDGSSKYNEKFKGKTTLTADRSSSTAYMLLSSLTSEDSAIYFCANYFYAMDQWGQGTSVTVSR
VL: IVLTQSHKFMSTSVGDRVSITCKASQDVSTAVAWYQQKPGQSPKLLIYWASTRHTGVPDRFTGSGSGTDYTLTISSVQAEDLALYYCQQHYSTPWTFGGGTKLEIK
notes: variable region of 2E9; mouse IgG2a heavy chain constant domains; mouse light chain constant domain; Full-length mouse IgG2a; also called 2E9 mAb; source: ExpiCHO-S, transfected, purified (Protein A); copies: 2 + 2
As for B4, in assay [2], the “stoichiometry N” value stood at 2 Prn per mAb.

B5: PeM-19 monoclonal antibody (R2-specific) (antibody, V domains shown)
VH: EVQLQQSGPELVKPGASVKIPCKASGYTFTDYNMDWVKQSHGKSLEWIGDINPNTGETIYNQKFEGKASLTVDKSSNTVYMELRSLTSEDTAVYYCARVPFYFDYWGQGTTLTVSR
VL: DIVMSQSPSSLTVSVGEKVTMSCKSSQSLLYSRDQKNYLAWYQQKPGQSPKMLIHWASTRASGVPDRFTGSGSGTDFTLTISSVKAEDLAVYYCQQYYFYPRTFGGGTKLELK
notes: variable region of PeM-19; mouse IgG2a heavy chain constant domains; mouse light chain constant domain; the methods describe the IgG2a format for the anti-pertactin antibodies in general; also called PeM-19 Ab; source: ExpiCHO-S, transfected, purified (Protein A); copies: 2 + 2
B5: the binding result in assay [3] was “no binding (tested: 2 µM each)”.

B6: 2B1 monoclonal antibody (antibody, V domains shown)
VH: QVQLQQSGPELVKPGASVKISCKASGYSFTDYNMYWVKQSHGKSLEWIGYFDPYNGGIYYNQNFKGRATLTVDKSSSTAFMHLNSLTSEDSAVYYCARGGGWFRGFTYWGQGTLVTVSR
VL: IQMTQSTSSLSASLGDRVTISCRASQDISNYLNWYQQKPDGTLNLLIYYTSRLHSGVPSRFSGSGSGTDYSLTISNLEQEDIATYFCQQGNTLPYTFGGGTKLEIK
notes: 2B1 HC, whole heavy chain as printed: variable region with mouse IgG2a constant domains; 2B1 LC, whole light chain as printed; full-length mouse IgG2a; measured mass 149,064 Da; also called 2B1 mAb; 2B1 Ab; source: ExpiCHO-S, transfected, purified (HiTrap Protein A); copies: 2 + 2
In turn, B6 had a dissociation constant Kd in assay [1] below 1 nM.

B7: 1E7 monoclonal antibody (antibody, V domains shown)
VH: QVQLQQPAAELARPGASVKMSCRASGYTFTTYTMHWVKQRPGQGLEWIGYINPSSGYTDYNQKFRDKITLTADKSSSTAYMQLSSLTSGDSAVYYCAREDYYGQGFTYWGQGTLVTVSR
VL: IVMTQSTSSLSASLGDRVTISCRASQDISNYLNWYQQKPDGTVKLLIYYTSRLHSGVPSRFSGSGSGTDYSLTISNLEQEDIATYFCQQGNMFPWTFGGGTKLELK
notes: variable region of 1E7; mouse IgG2a heavy chain constant domains; mouse light chain constant domain; Full-length mouse IgG2a; source: ExpiCHO-S, transfected, purified (Protein A); copies: 2 + 2
Regarding B7, the “stoichiometry N” value in assay [2] is 2 Prn per mAb.

B8: 1E7 monoclonal antibody (antibody, V domains shown)
VH: QVQLQQPAAELARPGASVKMSCRASGYTFTTYTMHWVKQRPGQGLEWIGYINPSSGYTDYNQKFRDKITLTADKSSSTAYMQLSSLTSGDSAVYYCAREDYYGQGFTYWGQGTLVTVSR
VL: IVMTQSTSSLSASLGDRVTISCRASQDISNYLNWYQQKPDGTVKLLIYYTSRLHSGVPSRFSGSGSGTDYSLTISNLEQEDIATYFCQQGNMFPWTFGGGTKLELK
notes: 1E7 HC, whole heavy chain as printed: variable region with mouse IgG2a constant domains; a predicted N-linked glycosylation site (NPS) in CDR2 is highlighted; 1E7 LC, whole light chain as printed; full-length mouse IgG2a; measured mass 149,106 Da; also called 1E7 mAb; 1E7 Ab; source: ExpiCHO-S, transfected, purified (HiTrap Protein A); copies: 2 + 2
In assay [1], B8 displayed an equilibrium dissociation constant (Kd) below 1 nM.

B9: 2B1 monoclonal antibody (antibody, V domains shown)
VH: QVQLQQSGPELVKPGASVKISCKASGYSFTDYNMYWVKQSHGKSLEWIGYFDPYNGGIYYNQNFKGRATLTVDKSSSTAFMHLNSLTSEDSAVYYCARGGGWFRGFTYWGQGTLVTVSR
VL: IQMTQSTSSLSASLGDRVTISCRASQDISNYLNWYQQKPDGTLNLLIYYTSRLHSGVPSRFSGSGSGTDYSLTISNLEQEDIATYFCQQGNTLPYTFGGGTKLEIK
notes: variable region of 2B1; mouse IgG2a heavy chain constant domains; mouse light chain constant domain; Full-length mouse IgG2a; source: ExpiCHO-S, transfected, purified (Protein A); copies: 2 + 2
Regarding B9, the “stoichiometry N” value in assay [2] was 2 Prn per mAb.
